Test results reported in paper doi:10.1101/273615 (bioRxiv, 2018).
Residue numbers refer to the chain shown, from its start. In names and notes the source's numbering stands. One block for each binder: values may come before it.

Assays:
Experiment in all cases: ITC
[1] = biological target: Mus musculus core RBPJ, residues 53-474 (Mus musculus, UniProt P31266 53-474)
[2] = biological target: RBPJ (53-474) F261A (Mus musculus, UniProt P31266 53-474, F261A)
[3] = biological target: RBPJ (53-474) A284V (Mus musculus, UniProt P31266 53-474, A284V)
Sequence of RBPJ (53-474) A284V (P31266 53-474 A284V): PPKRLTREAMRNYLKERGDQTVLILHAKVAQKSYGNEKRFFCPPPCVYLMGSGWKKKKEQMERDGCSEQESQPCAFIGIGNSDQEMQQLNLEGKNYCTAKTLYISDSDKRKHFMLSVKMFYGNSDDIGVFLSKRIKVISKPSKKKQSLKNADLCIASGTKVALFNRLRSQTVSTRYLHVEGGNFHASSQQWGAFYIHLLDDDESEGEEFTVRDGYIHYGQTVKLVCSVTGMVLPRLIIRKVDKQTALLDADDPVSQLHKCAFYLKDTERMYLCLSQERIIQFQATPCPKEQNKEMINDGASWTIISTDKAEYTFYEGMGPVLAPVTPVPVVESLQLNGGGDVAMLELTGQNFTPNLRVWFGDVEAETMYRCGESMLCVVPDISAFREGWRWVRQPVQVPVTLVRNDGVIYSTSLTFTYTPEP

[4] = biological target: RBPJ (53-474) L388A (Mus musculus, UniProt P31266 53-474, L388A)
Sequence of RBPJ (53-474) L388A (P31266 53-474 L388A): as the sequence (P31266 53-474 A284V) above, with V232A, L336A counted along it

Sequence of Mus musculus core RBPJ, residues 53-474 (P31266 53-474): as the sequence (P31266 53-474 A284V) above, with V232A counted along it
Sequence of RBPJ (53-474) F261A (P31266 53-474 F261A): as the sequence (P31266 53-474 A284V) above, with F209A, V232A counted along it

fold reduction in binding against native SHARP [1]: > 20 fold
B2: SMT3-SHARP (2776-2833) Y2793A (domain or fragment, UniProt Q96T58 2802-2859, looked up)
chain: SGAGLRVNTSEGVVLLSASGQKTEGPQRISAKISQIPPASAMDIEFQQSVSKSQVKPD

fold decrease in binding against native SHARP [1]: > 350 fold
B4: SMT3-SHARP (2776-2833) L2791A (domain or fragment, UniProt Q96T58 2802-2859, looked up)
chain: B2 chain with L16A, A18Y

fold reduction in binding against native SHARP [1]: > 10 fold
B6: SMT3-SHARP (2776-2833) V2789A (domain or fragment, UniProt Q96T58 2802-2859, looked up)
chain: B2 chain with V14A, A18Y

Continued, binder first:

B1: SMT3-SHARP, residues 2776-2833 (RBPJ-interacting region) (domain or fragment, UniProt Q96T58 2802-2859, looked up)
chain: B2 chain with A18Y
Kd [1]: ~5 nM
stoichiometry N [1]: 1
fold reduction in binding against native RBPJ [2]: ~45 fold
fold reduction in binding against native RBPJ [3]: ~50 fold
fold reduction in binding against native RBPJ [4]: ~70 fold

B3: SMT3-SHARP (2776-2833) I2811A (domain or fragment, UniProt Q96T58 2802-2859, looked up)
chain: B2 chain with A18Y, I36A
fold reduction in binding against native SHARP [1]: > 60 fold

B5: SMT3-SHARP (2776-2833) K2807A (domain or fragment, UniProt Q96T58 2802-2859, looked up)
chain: B2 chain with A18Y, K32A
fold reduction in binding against native SHARP [1]: ~6 fold
